The data set concerns K562 CRISPRi cells. The data set can be described thus: Constant region variant library pooled growth screen, K562. In kind it is cell-based, human. Conditions: sgRNA constant region variants. The method, boiled down:
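Pooled library transduced into K562 CRISPRi cells in duplicate, puromycin-selected, grown at >2000× coverage and sampled after 4 to 8 days. Phenotypes per targeting sequence:constant region pair were normalized to the unmodified-scaffold pairing to give relative activity.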

[1] abbreviates: relative to the original, un-modified constant region cr995 (= 1).
Setting [2] is: activity relative to the un-modified constant region cr995.
Where [3] appears, read: activity relative to the original, un-modified constant region cr995.

Numbering of substitutions follows the chain as printed.

B1: cr321 (nucleic acid)
guide: GTTTAAGAGCTAAGCTGGAAACAGCATAGCCAGTTTAAATAAGGCTAGTCCGTTATCAACTTGAAAAAGTGGCACCGAGTCGGTGCT
modifications: listed as DNA, chemistry not fully specified
With B1, the Mean relative activity under setting [1] is recorded as 0.9906.

B2: cr670 (nucleic acid)
guide: B1 guide with C31A, T70G
modifications: listed as DNA, chemistry not fully specified
As to B2, under setting [1], the Mean relative activity came to 0.9903.

B3: cr224 (nucleic acid)
guide: B1 guide with C31A, T61C, A68G, C73T, C75T, G83A, G85A
modifications: listed as DNA, chemistry not fully specified
B3 displayed a Mean relative activity under setting [2] of 0.9777.

B4: cr811 (nucleic acid)
guide: B1 guide with C25T, C31A
modifications: listed as DNA, chemistry not fully specified
The molecule B4 yielded a Mean relative activity under setting [2] of 0.9803.

B5: cr782 (nucleic acid)
guide: B1 guide with C31A, G63T, A65G
modifications: listed as DNA, chemistry not fully specified
B5: the Mean relative activity under setting [2] is given as 0.9816.

B6: cr556 (nucleic acid)
guide: B1 guide with C31A, T62C, A67G, G72A, C73T, G85A, C86T
modifications: listed as DNA, chemistry not fully specified
In turn, B6 gave a Mean relative activity under setting [2] of 0.9785.

B7: cr624 (nucleic acid)
guide: B1 guide with C31A, A55G
modifications: listed as DNA, chemistry not fully specified
B7: the Mean relative activity under setting [2] stood at 0.9799.

B8: cr973 (nucleic acid)
guide: B1 guide with C31A, G63A
modifications: listed as DNA, chemistry not fully specified
Molecule B8 gave a Mean relative activity under setting [1] of 0.9873.

B9: cr578 (nucleic acid)
guide: B1 guide with C31G, A65T
modifications: listed as DNA, chemistry not fully specified
In the case of B9, the Mean relative activity under setting [2] is reported as 0.9852.

B10: cr906 (nucleic acid)
guide: B1 guide with C31A, A65G, C75G, G83C
modifications: listed as DNA, chemistry not fully specified
Under setting [2], B10 returned a Mean relative activity of 0.9817.

B11: cr340 (nucleic acid)
guide: B1 guide with C31A, T62G
modifications: listed as DNA, chemistry not fully specified
Regarding B11, under setting [2], the Mean relative activity came out at 0.9853.

B12: cr671 (nucleic acid)
guide: B1 guide with C31A, A68G
modifications: listed as DNA, chemistry not fully specified
B12 showed a Mean relative activity under setting [1] of 0.9864.

B13: cr754 (nucleic acid)
guide: B1 guide with C31A, G63T
modifications: listed as DNA, chemistry not fully specified
Turning to B13, the Mean relative activity under setting [2] is given as 0.9804.

B14: cr327 (nucleic acid)
guide: B1 guide with C31A, A64C
modifications: listed as DNA, chemistry not fully specified
Take B14: under setting [3], the Mean relative activity was found to be 1.066.

B15: cr669 (nucleic acid)
guide: B1 guide with C31A, G79A
modifications: listed as DNA, chemistry not fully specified
The molecule B15 showed a Mean relative activity under setting [1] of 0.9881.

B16: cr251 (nucleic acid)
guide: B1 guide with C31A, T54G, A64T, G79C
modifications: listed as DNA, chemistry not fully specified
Consider B16, for which the Mean relative activity under setting [2] is given as 0.9836.

B17: cr855 (nucleic acid)
guide: B1 guide with C31A, T46C, A55C, A65C
modifications: listed as DNA, chemistry not fully specified
On to B17, for which the Mean relative activity under setting [2] was determined as 0.9849.

B18: cr563 (nucleic acid)
guide: B1 guide with C31A, C60G, T61C, A68G, G69C
modifications: listed as DNA, chemistry not fully specified
B18: the Mean relative activity under setting [3] is given as 1.068.

B19: cr176 (nucleic acid)
guide: B1 guide with C31A, A59G, T70C
modifications: listed as DNA, chemistry not fully specified
Under setting [3], B19 gave a Mean relative activity of 1.067.

B20: cr609 (nucleic acid)
guide: B1 guide with C31A, A32T, G63A, G79A
modifications: listed as DNA, chemistry not fully specified
Under setting [1], B20 showed a Mean relative activity of 0.9895.

B21: cr270 (nucleic acid)
guide: B1 guide with C31A, A59T, T61C, A68G, T70A, C76T, G82A
modifications: listed as DNA, chemistry not fully specified
The molecule B21 registered a Mean relative activity under setting [2] of 0.9835.

B22: cr307 (nucleic acid)
guide: B1 guide with C31A, G77A, C81T
modifications: listed as DNA, chemistry not fully specified
Take B22: the Mean relative activity under setting [2] is recorded as 0.9746.

B23: cr970 (nucleic acid)
guide: B1 guide with C31A, A64T, A65T
modifications: listed as DNA, chemistry not fully specified
For B23, under setting [2], the Mean relative activity amounted to 0.9826.

B24: cr478 (nucleic acid)
guide: B1 guide with A28G, C31A
modifications: listed as DNA, chemistry not fully specified
For the molecule B24, the Mean relative activity under setting [1] amounted to 0.9898.

B25: cr021 (nucleic acid)
guide: B1 guide with A8C, C31A
modifications: listed as DNA, chemistry not fully specified
In the case of B25, the Mean relative activity under setting [2] was 0.9786.

B26: cr147 (nucleic acid)
guide: B1 guide with C31A, G63A, A64T, G79C
modifications: listed as DNA, chemistry not fully specified
Turning to B26, under setting [2], the Mean relative activity is 0.9753.

B27: cr258 (nucleic acid)
guide: B1 guide with C31A, T49A
modifications: listed as DNA, chemistry not fully specified
The molecule B27 displayed a Mean relative activity under setting [1] of 0.9863.

B28: cr747 (nucleic acid)
guide: B1 guide with C31A, A59C, A65G, T70G
modifications: listed as DNA, chemistry not fully specified
B28 gave a Mean relative activity under setting [2] of 0.9812.

B29: cr238 (nucleic acid)
guide: B1 guide with C31A, A74T, C75T, G83A, T84A
modifications: listed as DNA, chemistry not fully specified
Molecule B29 returned a Mean relative activity under setting [2] of 0.9809.

B30: cr353 (nucleic acid)
guide: B1 guide with C31A, T62A
modifications: listed as DNA, chemistry not fully specified
B30: the Mean relative activity under setting [1] is listed as 0.9885.

B31: cr346 (nucleic acid)
guide: B1 guide with C31A, A59C, C60A, G69T, T70G, G72T, C86A
modifications: listed as DNA, chemistry not fully specified
B31 registered a Mean relative activity under setting [2] of 0.9847.

B32: cr926 (nucleic acid)
guide: B1 guide with C25A, C31A
modifications: listed as DNA, chemistry not fully specified
B32 returned a Mean relative activity under setting [2] of 0.9811.

B33: cr843 (nucleic acid)
guide: B1 guide with A21T, C31A
modifications: listed as DNA, chemistry not fully specified
B33: under setting [2], the Mean relative activity worked out at 0.9823.

B34: cr359 (nucleic acid)
guide: B1 guide with A28C, C31A
modifications: listed as DNA, chemistry not fully specified
Under setting [2], B34 yielded a Mean relative activity of 0.9746.

B35: cr969 (nucleic acid)
guide: B1 guide with C31A, A59T, A65G, T70A
modifications: listed as DNA, chemistry not fully specified
Under setting [2], B35 came in with a Mean relative activity of 0.9815.

B36: cr226 (nucleic acid)
guide: B1 guide with C31A, A74C, C75A, G83T, T84G
modifications: listed as DNA, chemistry not fully specified
In the case of B36, the Mean relative activity under setting [2] is listed as 0.9795.

B37: cr918 (nucleic acid)
guide: B1 guide with C31A, A59T, T70A
modifications: listed as DNA, chemistry not fully specified
The molecule B37 gave a Mean relative activity under setting [2] of 0.982.

B38: cr368 (nucleic acid)
guide: B1 guide with C31A, A59C, C60A, G69T, T70G
modifications: listed as DNA, chemistry not fully specified
The molecule B38 returned a Mean relative activity under setting [2] of 0.9836.

B39: cr783 (nucleic acid)
guide: B1 guide with C31A, A59T, T70A, C73A, G85T
modifications: listed as DNA, chemistry not fully specified
Regarding B39, the Mean relative activity under setting [2] was 0.9779.
